Residue numbers refer to the chain shown, from its start.
Columns and labels:
[1] = molecular target: GST-σ^GN45E (Bacillus subtilis) (UniProt P19940); experiment: pull-down; GST or GST-σ^G fusions on glutathione Sepharose beads; 100 nM purified CsfB-Strep II tag; 30 min at room temperature; washed three times in 200 mM NaCl, 10 mM Tris-HCl pH 8.0, 10% glycerol; immunoblot with anti-Strep II tag; densitometry, average of three experiments
[2] = molecular target: T1, GST-σ^G (Bacillus subtilis, UniProt P19940 1-260); experiment: as above; details: both partners purified
T1 construct: RNA polymerase sigma-G factor of Bacillus subtilis; coding region of sigG amplified with primers sigG2016D and sigG2964R from pMS45 and cloned into pGex4T-3; also called GST-σ^Gwt; GST-σ^G fusion protein (wt); not shown: GST, N-terminal, kept
T1 sequence (looked up): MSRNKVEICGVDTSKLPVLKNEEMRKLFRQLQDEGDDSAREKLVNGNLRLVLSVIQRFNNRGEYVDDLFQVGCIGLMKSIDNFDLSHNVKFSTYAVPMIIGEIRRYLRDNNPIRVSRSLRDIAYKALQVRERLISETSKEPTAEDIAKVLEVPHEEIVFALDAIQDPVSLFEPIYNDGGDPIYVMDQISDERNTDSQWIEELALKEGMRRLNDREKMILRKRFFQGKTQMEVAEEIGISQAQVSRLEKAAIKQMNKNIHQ

[3] = molecular target: T2, GST-σ^GN45A (Bacillus subtilis, UniProt P19940 1-260, N45A); experiment: as above; details: both partners purified
T2 construct: RNA polymerase sigma-G factor of Bacillus subtilis; coding region of sigGN45A amplified from pJS4 and cloned into pGex4T-3; not shown: GST, N-terminal, kept
T2 sequence (looked up): T1 sequence (looked up) with N45A

[4] = molecular target: GST-σ^GN45E (Bacillus subtilis) (UniProt P19940); experiment: pull-down; GST or GST-σ^G fusions on glutathione Sepharose beads; soluble extract of B. subtilis AH6608 (CsfB-GFP) 2 h after the onset of sporulation; 30 min at room temperature; washed three times in 200 mM NaCl, 10 mM Tris-HCl pH 8.0, 10% glycerol; immunoblot with anti-GFP and anti-SpoIIAB; densitometry, average of three experiments
[5] = molecular target: T2, GST-σ^GN45A; experiment: as above; details: one partner purified

B1: CsfB-Strep II tag (natural protein, Bacillus subtilis, UniProt P37534 1-64, looked up)
chain: MDETVKLNHTCVICDQEKNRGIHLYTKFICLDCERKVISTSTSDPDYAFYVKKLKSIHTPPLYS
notes: anti-sigma-G factor CsfB (Gin) of Bacillus subtilis; coding region of csfB amplified with primers csfB191D and csfBstrepR (which carries the Strep II tag) and cloned between NcoI and BamHI of pET16b; also called CsfB-Strep II-tagged protein; purified CsfB; source: E. coli BL21(DE3) grown in LB, purified (Strep-Tactin Sepharose); not shown: Strep II tag, C-terminal, kept
efficiency of the pull-down relative to the wild type (× of the wild type) [1]: 0.2
binding result [2]: binds
efficiency of the pull-down relative to the wild type [3]: ~0.6 × the efficiency of the wild type

B2: CsfB-GFP fusion (natural protein, Bacillus subtilis, UniProt P37534 1-64, looked up)
chain: B1 chain
notes: anti-sigma-G factor CsfB (Gin) of Bacillus subtilis, functional fusion to GFP; The construction of the csfB-gfp fusion stands in Text S1; source: B. subtilis AH6608 (csfB::km ΔsigG ΔamyE::csfB-gfp), soluble extract 2 h after the onset of sporulation in DSM
efficiency of the pull-down relative to the wild type (× of the wild type) [4]: 0.4
efficiency of the pull-down relative to the wild type [5]: 0.7 × of the wild type

From publication PMC3174212, “A Negative Feedback Loop That Limits the Ectopic Activation of a Cell Type–Specific Sporulation Sigma Factor of Bacillus subtilis” (PLoS Genetics, 2011)
